This data set has as its target T1, RocS WT-ΔAH (Streptococcus pneumoniae R6, UniProt Q8DQ15 1-152).
T1 sequence: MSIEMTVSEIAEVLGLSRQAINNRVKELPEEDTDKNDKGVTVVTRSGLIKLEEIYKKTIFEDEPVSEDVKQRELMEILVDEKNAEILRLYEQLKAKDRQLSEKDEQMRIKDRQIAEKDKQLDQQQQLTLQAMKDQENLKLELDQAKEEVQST
Nature of the data set: MST; MST: 25 mM Tris/HCl pH 7.5, 100 mM NaCl, 5% glycerol, 0.025% Tween-20, 25 C, 10 nM DNA probe; EMSA: 25 mM Tris/HCl pH 7.5, 100 mM NaCl, 5% glycerol, 100 ng DNA. As to conditions: protein: recombinant; tags: C-terminal 6xHis, removed with TEV protease; label: 5' Cy5 on strand 1; blunt.

B1: dnaC_Cy5 (dsDNA)
DNA 1: GTCAACCAAGCTTACGAAGCGTCACAACCAGCTGATGAAATTATTGCTCA
DNA 2: TGAGCAATAATTTCATCAGCTGGTTGTGACGCTTCGTAAGCTTGGTTGAC
The Kd is the concentration at which binding is half-saturated. Consider B1, for which the Kd amounted to 34 µM.

The values are drawn from publication PMC11500499, “Molecular dissection of the chromosome partitioning protein RocS and regulation by phosphorylation”.
